± gives the uncertainty stated by the source.
Test: amyloid nucleation score (Sup35N fusion, yeast selection) (log enrichment); library NNK3; higher = more nucleation; inactive = no reads after selection
In short: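 The nucleation score equals the log enrichment of output over input reads from DiMSum, centred on the mode score of non-aggregating sequences. It was computed only for sequences with 100 or more input reads. The reads came from Illumina sequencing of plasmid inserts from psi-negative yeast expressing Sup35N fused to peptides of 20 random codons, induced with 100 μM copper sulfate for 24 hours and grown 7 days at 30°C without adenine and uracil.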

Substance | amyloid nucleation score
RVRQTFCIW | 1.75 ± 0.11
RVRRGSHCNTFKKSLRLRCA | inactive
RVSGEMFASSL | inactive
RVSSGSIVTRQHDLN | inactive
RVSWGARVHIWCSLDLVCRF | inactive
RVTDLFRRLASNYILSSTTA | inactive
RVTDLRYIKMFVCIILCTGL | inactive
RVTIVPTKHHLML | inactive
RVVNFFVGVNTNEAMFKRSV | 2.71 ± 0.067
RVVYL | -0.667 ± 1.8
RVYMPAAKSINYEPNITRM | inactive
RVYVAWTTCSADKKNSNIMQ | 0.939 ± 0.12
RWAELTEQTCS | inactive
RWCVM | 0.14 ± 0.56
RWIFLITILGVLNT | inactive
RWLVT | inactive
RWNGFVVNTFINTLGRLTKC | -0.578 ± 1
RWWTCSQSNSGVIFEQIYQT | inactive
RYCNASY | inactive
RYFSFELKLMLISELYVMAV | inactive
RYFVT | inactive
RYGIFMEHEIMYHLNPDGFY | inactive
RYKTMRRVTFKHSLNKKWVK | inactive

Substance | amyloid nucleation score
RYNPFRIQELSMLFVLERTL | 0.014 ± 0.71
RYSESLMFRFKWDDYYRGRV | -0.307 ± 0.88
RYSRSKIG | inactive
RYTGLMTKLASYYNKISICN | inactive
RYTVSGTLSAYF | -0.112 ± 0.37
RYYGSFVEPRSFSRN | inactive
SAAGKQLKSRFIGRR | inactive
SAASYLTHDVN | inactive
SACECAPTTSRIRPGSSATR | inactive
SADLFVSEYKGIRMTIGNVF | inactive
SADNLDKFRLEMPVSLVRLN | inactive
SAGIIFCMKSLVFSFLFITL | inactive
SAIKYPLSRRCMWAGSSLLG | inactive
SAIYLYKYCPSNIITRTLVP | inactive
SALLKWYRYTSAWSGNDVAA | inactive
SALVLPRSVSVDLIGVWDFK | inactive
SANSQYDI | inactive
SANYNSNFR | inactive
SAPKWGGTYDRVCTISNFTV | inactive
SAQPESY | inactive
SARISNAVNDSFTGKTMYNK | inactive
SARYWESDRLALIRCHLELR | inactive
SCASAFKKVLVCSNCSGRFS | -0.133 ± 0.66

Substance | amyloid nucleation score
SCCGRKMRPGRFEIIDKFCI | 0.523 ± 0.24
SCDNYVVLTHEFVLSHSKSL | 1.01 ± 0.14
SCFCMKLSLFYGAIN | 0.675 ± 0.51
SCGACLKEGRSG | inactive
SCGYTLWLYRCEIQRRV | inactive
SCHFYTML | 0.237 ± 0.65
SCKRPVTVWACDQVRYDRFP | inactive
SCKVVPCYHVDDMVEL | inactive
SCTRIVY | inactive
SCWRNLYSFLRKGSYSRCM | inactive
SCYIEWMVFGSYPL | inactive
SDGVGQLDSDVHSGGGDNRQ | inactive
SDIMNDH | inactive
SDLSCSELEYSHGTNTDWVR | inactive
SDSGLKKV | inactive
SDTLYFVCSVTWQRFYKMID | inactive
SEAPSSR | inactive
SEGDLKYVW | inactive
SEHDDGMVSPKTHTVGSYTC | inactive
SEHMNGWHHNLTQCEENFRN | inactive
SEIKYSYSYMRFLNCTETSN | inactive
SEIVSKVITLQGNICFFGMG | inactive
SEKPIFSHPNLIYENGIGWI | inactive

Substance | amyloid nucleation score
SELHK | inactive
SEMLFIDQLCSSSVSKYTVI | inactive
SEPLYSVVLSDMDELWHCL | inactive
SESSNTELLSVLYIYAVWYL | inactive
SETKVIGQLRKTSNSEAHNA | 0.422 ± 0.67
SEVRSLKHVGLCIQSMGSAL | inactive
SEYMNLYTVTTHRTPS | inactive
SFAGYRQIGRQGVWVIQVRH | inactive
SFCFSNDVA | inactive
SFDSLVISDTVSRDRCLQII | inactive
SFELVQWDS | inactive
SFFEYLPTQPTR | inactive
SFFLDILRVWYYNVPNVPAR | inactive
SFFPIPIWCD | inactive
SFFTGKAKGFYRQALRTYYR | -0.093 ± 0.59
SFIIVILYGDHALYFTYEAV | inactive
SFIIYCPVKKPQIVFHRLPS | 2.36 ± 0.056
SFIVETVDQDVLG | inactive
SFLDMIRCDINLIYKRHRLG | inactive
SFLSWVKYWERSCPDHSIWF | inactive
SFLVSFTGVMLEFNCTCHLA | inactive
SFPLPS | inactive
SFPWSCPASYSYQGCWWERD | inactive

Substance | amyloid nucleation score
SFQFMFSRSSNRDFCILIQR | inactive
SFRFYVERL | inactive
SFRYAYWLSNNCH | 0.378 ± 0.4
SFSRPVHSWAGHY | inactive
SFVHGKLILKFRSVNASRQS | inactive
SFVMGSAANL | inactive
SFVVN | inactive
SFWTMGNS | inactive
SFYIVVRWMYIRFVDQYLIY | inactive
SFYRMRVIHSLDYAKVKSTL | 0.772 ± 0.2
SFYSNGKLLVILFATMMD | inactive
SGAFYAHHHLSRLLTDEDIS | inactive
SGCGLMQNGMSCLIEFTVAK | inactive
SGFDGTPFVLLSSDMFSNIG | inactive
SGFFSVAGIGWYTIYFCIYR | inactive
SGHSAFGKKGLRGM | inactive
SGKSFNVTGLPCMAWCRATD | inactive
SGLACRYCTMVGCNLNYNYW | 2.58 ± 0.055
SGLKTFLEMSLHLCVLLARA | inactive
SGLKVCYNYEDGRMVSLGYH | inactive
SGLWW | inactive
SGSKKCAFRHVRIHFRLTAG | inactive
SGSLGFYTP | inactive

Substance | amyloid nucleation score
SGTSFISTKFSISLSIWLTA | inactive
SGVWTF | inactive
SHIVFM | inactive
SHNRCVEWFKWIF | 0.885 ± 0.09
SHSAFEGKVC | inactive
SHSVYIFFVSTFVGSLWSLP | inactive
SHVKYNNMW | inactive
SHVWFDRGLIETEMSAHRY | inactive
SIDNLSPRPTWSGIMFSHCL | inactive
SIEMRLCQDWTQLESLT | -0.252 ± 0.66
SIESPSNIMS | inactive
SIGNAVYMIVGITGVRRRIY | inactive
SIGPVCIRTQSRPQITLRMM | inactive
SIGVRTRLKLCC | inactive
SILLVFHFKANVCLVFT | inactive
SILYD | inactive
SINSLFAESGLMLTFRMSSE | inactive
SIPPRMRCFLGCFWSISWDA | inactive
SIPWLIVINTSHLLVIFNAI | inactive
SISIFHNCF | 2.66 ± 0.063
SISSEALVFYFRIAGTVIKR | inactive
SISSYMD | inactive
SITRWFHTVMSIFKFYFEFD | inactive

Substance | amyloid nucleation score
SITSFDFLINRVSMPSYNCG | inactive
SITWET | inactive
SIWWYNLVVI | inactive
SKAMWLSLM | inactive
SKCVGFIMNFLISSDNEDSN | 2.27 ± 0.053
SKFFLPQTEFPQKGLTPITA | inactive
SKFLVNGAGLDELDVLVCLL | inactive
SKGLCPVWIVLYKACHSMIF | inactive
SKLFVSVSTTIYFEEPSPA | inactive
SKLYYHNQLCFILMHTA | inactive
SKNATIQAMFERLVVVIS | inactive
SKPLFMTNNVTMGTIWPHMG | inactive
SKTFNDPFLLNHLNTFIKPR | -0.259 ± 0.93
SKTMALMYLSFQPHYLYTLC | inactive
SKTPLCMNYFL | inactive
SKVMVHVIWEIVILFMKSKI | inactive
SKWAYIAFGVFVLLFALFNK | -0.161 ± 0.27
SLALFFGIHPNLCFTDTSST | 0.559 ± 0.2
SLCDSVGSKSVF | inactive
SLCLVSLLCFSFRCNDGKWR | 1.38 ± 0.084
SLDIKPSMRCGRRCVRGRST | inactive
SLDWCIRVITGGLRSVVRA | inactive
SLFGVNGMSAPGRRDV | 0.589 ± 0.31
